Data as given in publication doi:10.1101/2023.08.14.552755.

What was measured:
[1] = target: VpOmpM1 (OmpM1 from Veillonella parvula), full length, expressed in E. coli (Veillonella parvula); assay: cryo-EM structure
[2] = target: VpOmpM1 stalk region (residues 22-107), soluble construct (Veillonella parvula); assay: crystal structure

stoichiometry N [1] | stoichiometry N [2] | Substance
3 | – | VpOmpM1 (OmpM1 from Veillonella parvula), full length, expressed in E. coli (natural protein)
– | 3 | VpOmpM1 stalk region (residues 22-107), soluble construct (domain or fragment)
